According to paper PMC6319338, “Insight into the PTEN – p85α interaction and lipid binding properties of the p85α BH domain” (Oncotarget, 2018):

Target: T1, purified p85α wild type (cleaved from GST) (bovine, UniProt P23727 1-724)
T1 construct: p85α (PI3K regulatory subunit alpha), bovine, residues 1-724; also called wild type p85α; source: E. coli, expressed as GST fusion, cleaved from GST, purified; not shown: GST, N-terminal, cleaved
Test: pull-down; GST-PTEN (wild type or mutant; 5 μg) immobilized on glutathione Sepharose beads; precleared purified p85α cleaved from GST (5 μg in 1% milk, 500 μl PBS pH 7.3); 30 minutes at room temperature; 5 washes; anti-p85α immunoblot, quantified with Odyssey software
Details: both partners purified

binding result: binds
B1: GST-PTEN wild type (1–403) (natural protein)
chain: not shown
notes: PTEN, human, residues 1-403 (74 kDa as GST fusion); vector pGEX6P1; The activity assay used His6-PTEN instead; also called wild type PTEN; source: E. coli, GST fusion immobilized on glutathione Sepharose beads
